Measured values taken from US20080267949A1, “Peptides capable of binding to serum proteins” (Ablynx N.V., priority 2006, published 2008).
Bridge positions count the residues as written; N and C are the ends. Ends that are not written are not given here.

Legend:
[1] = target: T1, human serum albumin (HSA) (Homo sapiens, UniProt P02768); assay: Phage binding assay: peptide expressed on pIII of M13 phage, on coated HSA (anti-M13 detection, Odyssey read-out); details: for Binding to HSA (Example 7, VHH fusions on phage): 1/2 dilution series starting with 10^12 phages/mL; for Binding to HSA (Example 4): 1/2 dilution series starting with 7.5×10^11 phages/mL; for Binding to HSA (Example 5, cross-reactivity): different phage concentrations
T1 construct: purchased Sigma A5763
Description: (§1) After two selection rounds, monoclonal phage were screened for binding on HSA versus negative control antigen, ovalbumin (A5378, Sigma). Wells of a Maxisorp microtiter plate (Nunc) were coated using 10 μg/mL HSA or ovalbumin and blocked with SuperBlock T20 PBS Blocking Buffer (Pierce) to prevent non-specific binding. Phages, produced in 96-well plate, were diluted 1/10 in 1:1 (v:v) Superblock T20 PBS Blocking Buffer:PBS+0.05% Tween-20 and incubated on both HSA and ovalbumin. Bound phages were detected using anti-M13 (GE Healthcare) and goat anti-mouse IRDye700 (Rockland) and signals were read-out on Odyssey (LI-COR Biosciences). […] Both ‘hits’ were selected from the same library, i.e. originating from llama 117 in the non-constrained format. […] This peptide is referred to as 17D12. Its full amino acid sequence is given in SEQ ID NO: 1, and its encoding nucleotide sequence is given in SEQ ID NO:2. The amino acid sequence of the CDR3 loop is given in SEQ ID NO:3.
(§2) The phage binding assay was performed essentially as described in example 3. Phages, produced in 10 mL culture volume, were incubated on both HSA and ovalbumin in a ½ dilution series, starting with 7.5×10^11 phages/mL. […] Non-specific binding to ovalbumin is slightly higher for the constrained truncated peptide.
(§3) Binding of 17D12, as selected from primary screening after 2 selection rounds on HSA, to serum albumin of different species [mouse serum albumin (MSA, A3559, Sigma), cynomolgus serum albumin (CSA, in-house production), bovine serum albumin (BSA, A6003, Sigma) and HSA] and to negative control antigens [ovalbumin, human tumor necrosis factor α (TNF, in-house production)] was assessed using different phage concentrations. Additionally, similar binding studies were performed with two truncated variants of 17D12. Both peptides, i.e. 17D12-CDR3-NC (SEQ ID NO: 26) and 17D12-CDR3-C (SEQ ID NO;27), lack the flanking FR residues of 17D12 and the former is a non-constrained loop, whereas the latter is constrained (FIG. 4).
(§4) The phage binding assay was performed essentially as described in example 4.
(§5) The phage binding assay to HSA and ovalbumin was performed essentially as described in example 4. Phages, produced in 10 mL culture volume, were incubated on both HSA and ovalbumin in a ½ dilution series, starting with 10^12 phages/mL.

[2] = target: T2, ovalbumin (Gallus gallus, UniProt P01012); assay: Phage binding assay on coated negative control antigen ovalbumin; details: for Binding to negative control ovalbumin (Example 7): 1/2 dilution series starting with 10^12 phages/mL; for Binding to negative control ovalbumin (Example 4): 1/2 dilution series starting with 7.5×10^11 phages/mL; for Non-specific binding to irrelevant protein ovalbumin (Example 5): different phage concentrations
T2 construct: purchased Sigma A5378
T2 sequence (P01012 1-386): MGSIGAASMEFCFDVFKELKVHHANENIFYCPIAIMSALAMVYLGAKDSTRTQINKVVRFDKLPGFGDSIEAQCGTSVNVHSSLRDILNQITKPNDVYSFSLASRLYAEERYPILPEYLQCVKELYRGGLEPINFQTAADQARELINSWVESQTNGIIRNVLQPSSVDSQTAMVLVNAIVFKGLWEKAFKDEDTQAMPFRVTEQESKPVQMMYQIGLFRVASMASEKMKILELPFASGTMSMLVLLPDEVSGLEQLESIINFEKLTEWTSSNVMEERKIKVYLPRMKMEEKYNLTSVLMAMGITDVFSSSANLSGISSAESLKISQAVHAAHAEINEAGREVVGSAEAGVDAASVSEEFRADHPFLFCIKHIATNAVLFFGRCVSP
Description: as §1, §2, §3, §4, §5

[3] = target: T3, bovine serum albumin (BSA) (Bos taurus, UniProt P02769); assay: Phage binding assay, cross-reactivity to bovine serum albumin; details: different phage concentrations
T3 construct: purchased Sigma A6003
Description: as §1, §3, §4

[4] = target: T4, cynomolgus serum albumin (CSA) (Macaca fascicularis, UniProt A2V9Z4); assay: Phage binding assay, cross-reactivity to cynomolgus serum albumin; details: different phage concentrations
T4 construct: made in house
Description: as §1, §3, §4

[5] = target: T5, human tumor necrosis factor α (TNF) (Homo sapiens, UniProt P01375); assay: Phage binding assay, specificity against negative control antigen TNF; details: different phage concentrations
T5 construct: made in house
Description: as §1, §3, §4

[6] = target: T6, mouse serum albumin (MSA) (Mus musculus, UniProt P07724); assay: Phage binding assay, cross-reactivity to mouse serum albumin; details: different phage concentrations
T6 construct: purchased Sigma A3559
Description: as §1, §3, §4

[7] = target: T7, ovalbumin (negative control antigen) (UniProt P01012 2-386); assay: phage binding assay: ovalbumin coated on Maxisorp, M13 phage in 1/2 dilution series from 10^12 phages/mL, Odyssey intensity
T7 construct: Bought protein
T7 sequence (looked up): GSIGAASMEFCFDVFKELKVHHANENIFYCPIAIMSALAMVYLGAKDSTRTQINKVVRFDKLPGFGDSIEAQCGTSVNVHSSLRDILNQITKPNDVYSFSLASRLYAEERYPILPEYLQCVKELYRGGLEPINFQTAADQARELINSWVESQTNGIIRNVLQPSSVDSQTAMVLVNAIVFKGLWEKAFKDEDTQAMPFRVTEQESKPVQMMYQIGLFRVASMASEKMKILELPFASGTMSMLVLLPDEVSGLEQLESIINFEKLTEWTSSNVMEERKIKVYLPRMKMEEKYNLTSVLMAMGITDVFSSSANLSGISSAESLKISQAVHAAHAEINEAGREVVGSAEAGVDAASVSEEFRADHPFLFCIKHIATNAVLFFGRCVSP
Description: The phage binding assay to HSA and ovalbumin was performed essentially as described in example 4. Phages, produced in 10 mL culture volume, were incubated on both HSA and ovalbumin in a ½ dilution series, starting with 10¹² phages/mL. Dose-dependent binding to HSA was retained upon fusion of the peptide 17D12 at the C-terminus of a non-albumin binding intact VHH in the presence or absence of a GlySer linker (FIG. 9).

[8] = target: T8, cynomolgus serum albumin (cynomolgus, UniProt A2V9Z4 25-608); assay: phage binding assay on coated Maxisorp wells, 5 phage dilutions per peptide (concentrations not given), Odyssey image
T8 construct: also called CSA; cynoSA
Description: as §3
(§6) The phage binding assay was performed essentially as described in example 4. Full length 17D12 peptide as well as truncated peptides, 17D12-CDR3-NC and 17D12-CDR3-C, bind dose-dependently to HSA and CSA, whereas reactivity to MSA and BSA was not apparent in the assay performed (FIG. 6). There is no significant non-specific binding of 17D12 and 17D12-CDR3-NC to irrelevant proteins tested (ovalbumin and TNF). In contrast, there is a subtle degree of non-specific binding with the constrained truncated peptide.

[9] = target: T9, mouse serum albumin (mouse, UniProt P07724 25-608); assay: phage binding assay on coated Maxisorp wells, 5 phage dilutions per peptide, Odyssey image
T9 construct: also called MSA
Description: as §3, §6

[10] = target: T10, bovine serum albumin (bovine, UniProt P02769 25-607); assay: as above
T10 construct: also called BSA
Description: as §3, §6

[11] = target: T11, human serum albumin (human, UniProt P02768 25-609); assay: phage binding assay: 10 µg/mL HSA coated on Maxisorp, M13 phage displaying the peptide on pIII in 1/2 dilution series, anti-M13 + goat anti-mouse IRDye700, Odyssey intensity
T11 construct: Bought protein; also called HSA
Description: After two selection rounds, monoclonal phage were screened for binding on HSA versus negative control antigen, ovalbumin (A5378, Sigma). Wells of a Maxisorp microtiter plate (Nunc) were coated using 10 μg/mL HSA or ovalbumin and blocked with SuperBlock T20 PBS Blocking Buffer (Pierce) to prevent non-specific binding. Phages, produced in 96-well plate, were diluted 1/10 in 1:1 (v:v) Superblock T20 PBS Blocking Buffer:PBS+0.05% Tween-20 and incubated on both HSA and ovalbumin. Bound phages were detected using anti-M13 (GE Healthcare) and goat anti-mouse IRDye700 (Rockland) and signals were read-out on Odyssey (LI-COR Biosciences). […] This peptide is referred to as 17D12. Its full amino acid sequence is given in SEQ ID NO: 1, and its encoding nucleotide sequence is given in SEQ ID NO:2. The amino acid sequence of the CDR3 loop is given in SEQ ID NO:3.
The phage binding assay was performed essentially as described in example 3. Phages, produced in 10 mL culture volume, were incubated on both HSA and ovalbumin in a ½ dilution series, starting with 7.5×10¹¹ phages/mL. […] Non-specific binding to ovalbumin is slightly higher for the constrained truncated peptide.

T6 sequence (P07724 25-608): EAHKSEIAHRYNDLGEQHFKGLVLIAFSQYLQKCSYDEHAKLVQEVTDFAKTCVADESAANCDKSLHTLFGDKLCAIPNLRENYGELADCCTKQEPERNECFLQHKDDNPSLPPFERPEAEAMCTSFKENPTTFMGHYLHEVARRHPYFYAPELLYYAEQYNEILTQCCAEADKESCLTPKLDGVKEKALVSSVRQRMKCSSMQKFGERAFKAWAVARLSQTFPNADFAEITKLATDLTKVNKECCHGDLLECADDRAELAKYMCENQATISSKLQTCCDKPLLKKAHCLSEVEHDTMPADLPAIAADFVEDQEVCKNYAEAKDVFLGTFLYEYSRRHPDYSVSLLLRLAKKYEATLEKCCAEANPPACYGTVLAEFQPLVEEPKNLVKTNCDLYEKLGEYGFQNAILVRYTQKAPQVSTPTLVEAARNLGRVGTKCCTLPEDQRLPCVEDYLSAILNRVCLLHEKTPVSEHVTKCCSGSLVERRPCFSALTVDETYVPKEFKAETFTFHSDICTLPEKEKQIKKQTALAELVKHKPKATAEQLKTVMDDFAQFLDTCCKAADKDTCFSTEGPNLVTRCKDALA
T3 sequence (P02769 25-607): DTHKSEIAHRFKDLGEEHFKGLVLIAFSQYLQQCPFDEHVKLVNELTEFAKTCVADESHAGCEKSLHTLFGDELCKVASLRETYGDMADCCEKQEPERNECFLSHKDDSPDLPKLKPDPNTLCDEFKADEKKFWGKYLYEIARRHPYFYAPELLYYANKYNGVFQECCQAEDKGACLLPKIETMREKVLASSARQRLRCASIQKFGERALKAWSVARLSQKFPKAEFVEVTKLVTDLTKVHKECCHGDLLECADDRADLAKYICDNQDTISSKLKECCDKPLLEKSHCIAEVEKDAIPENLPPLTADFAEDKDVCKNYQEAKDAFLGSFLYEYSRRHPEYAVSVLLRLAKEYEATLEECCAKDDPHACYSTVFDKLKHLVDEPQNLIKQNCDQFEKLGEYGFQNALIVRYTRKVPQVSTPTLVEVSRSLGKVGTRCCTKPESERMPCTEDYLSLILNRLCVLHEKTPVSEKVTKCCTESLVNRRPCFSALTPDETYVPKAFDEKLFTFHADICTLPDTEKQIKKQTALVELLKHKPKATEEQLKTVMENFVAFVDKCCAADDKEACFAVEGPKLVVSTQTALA
T4 sequence (A2V9Z4 25-608): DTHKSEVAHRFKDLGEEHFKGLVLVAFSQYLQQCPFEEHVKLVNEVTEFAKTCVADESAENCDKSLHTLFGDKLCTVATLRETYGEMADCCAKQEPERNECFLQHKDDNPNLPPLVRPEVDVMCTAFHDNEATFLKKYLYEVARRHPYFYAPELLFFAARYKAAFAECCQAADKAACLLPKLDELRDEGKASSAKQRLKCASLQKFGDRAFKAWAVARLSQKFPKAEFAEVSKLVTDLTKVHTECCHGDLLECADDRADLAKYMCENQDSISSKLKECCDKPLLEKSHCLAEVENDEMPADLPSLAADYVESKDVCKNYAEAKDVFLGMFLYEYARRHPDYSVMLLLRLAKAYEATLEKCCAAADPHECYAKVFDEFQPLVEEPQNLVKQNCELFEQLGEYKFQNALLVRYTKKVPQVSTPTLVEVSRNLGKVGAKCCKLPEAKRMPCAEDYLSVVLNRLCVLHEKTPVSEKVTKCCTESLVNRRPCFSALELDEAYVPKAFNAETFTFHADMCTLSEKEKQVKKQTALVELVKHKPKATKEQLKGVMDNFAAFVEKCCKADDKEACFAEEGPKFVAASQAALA
T5 sequence (P01375 77-233 limits assumed): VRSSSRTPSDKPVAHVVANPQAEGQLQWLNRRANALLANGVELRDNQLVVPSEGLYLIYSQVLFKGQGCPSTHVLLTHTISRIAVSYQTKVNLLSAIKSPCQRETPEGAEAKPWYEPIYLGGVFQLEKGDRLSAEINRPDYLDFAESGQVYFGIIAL
T9 sequence (P07724 25-608 limits assumed): as the sequence (P07724 25-608) above
T10 sequence (P02769 25-607 limits assumed): as the sequence (P02769 25-607) above
T8 sequence (A2V9Z4 25-608 limits assumed): as the sequence (A2V9Z4 25-608) above

“2D3-17D12(S): 17D12 (FR3 Cys replaced with Ser) fused at C-terminus of VHH 2D3 without linker, on M13 phage (DTAVYYSNAAASYSDYDVFGGGTDFGPWGQGTQV; not fully specified (N-terminus); also: displayed on M13 phage)” was tested, and the “Binding to HSA (Example 7, VHH fusions on phage)” value [1] was “bind dose-dependently to HSA” and the “Binding to negative control ovalbumin (Example 7)” value [2] was “not to negative control peptide, ovalbumin”.

“2D3-GlySer-17D12(S): 17D12 (FR3 Cys replaced with Ser) fused at C-terminus of VHH 2D3 via Gly4Ser-Gly3Ser linker, on M13 phage (GGGGSGGGSDTAVYYSNAAASYSDYDVFGGGTDFGPWGQGTQV; not fully specified (N-terminus); also: displayed on M13 phage)” was tested, and the “Binding to HSA (Example 7, VHH fusions on phage)” value [1] was “bind dose-dependently to HSA” and the “Binding to negative control ovalbumin (Example 7)” value [2] was “not to negative control peptide, ovalbumin”.

With “aaasysdydvfgggtdfgpa (AAASYSDYDVFGGGTDFGPA; also: displayed on M13 pIII) [17D12-CDR3-NC, truncated 17D12 lacking flanking FR residues, non-constrained loop, on M13 phage]” the “Reactivity to BSA” value [3] was “not apparent”, the “Binding to CSA” value [4] was “bind dose-dependently” and the “Non-specific binding to irrelevant protein TNF” value [5] was “no significant non-specific binding”. For the same molecule, the “Reactivity to MSA” value [6] was “not apparent”, the “Binding to HSA (Example 4)” value [1] was “bind dose-dependently to HSA” and the “Binding to HSA (Example 5, cross-reactivity)” value [1] was “bind dose-dependently”. The “Binding to negative control ovalbumin (Example 4)” value [2] was “not to negative control peptide, ovalbumin” and the “Non-specific binding to irrelevant protein ovalbumin (Example 5)” value [2] was “no significant non-specific binding”.

“caaasysdydvfgggtdfgpac (CAAASYSDYDVFGGGTDFGPAC; disulfide 1-22 (inferred); also: displayed on M13 phage pIII) [17D12-CDR3-C, truncated 17D12 lacking flanking FR residues, constrained loop, on M13 phage]” was tested, and the “Reactivity to BSA” value [3] was “not apparent”, the “Binding to CSA” value [4] was “bind dose-dependently” and the “Non-specific binding to irrelevant protein TNF” value [5] was “subtle degree of non-specific binding”. For the same molecule, the “Reactivity to MSA” value [6] was “not apparent”, the “Binding to HSA (Example 4)” value [1] was “bind dose-dependently to HSA” and the “Binding to HSA (Example 5, cross-reactivity)” value [1] was “bind dose-dependently”. For the same molecule, the “Binding to negative control ovalbumin (Example 4)” value [2] was “not to negative control peptide, ovalbumin” and the “Non-specific binding to irrelevant protein ovalbumin (Example 5)” value [2] was “subtle degree of non-specific binding”.

B1: 2D3-17D12(S): 17D12 peptide (FR3 Cys replaced with Ser) fused at the C-terminus of VHH 2D3 without linker, expressed on pIII of M13 phage (other, not shown: large carriers)
chain: DTAVYYSNAAASYSDYDVFGGGTDFGPWGQGTQV
modifications: not fully specified (N-terminus); also: fused to C-terminus of VHH 2D3, displayed on M13 pIII
notes: VHH-peptide fusion tested as phage; also called VHH-17D12(S)
B1: no binding (tested: 100 x10^10 phage/mL) [7].

B2: 17D12-CDR3-C, constrained truncated CDR3 loop of 17D12 without flanking FR, expressed on pIII of M13 phage (peptide, not shown: large carriers)
peptide: CAAASYSDYDVFGGGTDFGPAC
modifications: disulfide 1-22; not fully specified
notes: Tested as phage; also called constrained truncated peptide
B2: binds [8]; no binding [9]; no binding [10]. For the same molecule, the “EC50 (read off the curve)” value [11] was about 6e+10 phage/mL.

B3: 2D3-GlySer-17D12(S): 17D12 peptide (FR3 Cys replaced with Ser) fused at the C-terminus of VHH 2D3 via a Gly4Ser-Gly3Ser linker, expressed on pIII of M13 phage (other, not shown: large carriers)
chain: GGGGSGGGSDTAVYYSNAAASYSDYDVFGGGTDFGPWGQGTQV
modifications: not fully specified (N-terminus); also: fused to C-terminus of VHH 2D3, displayed on M13 pIII
notes: VHH-peptide fusion tested as phage; also called VHH-GlySer-17D12(S)
B3: no binding (tested: 100 x10^10 phage/mL) [7].
